Measurements from paper PMC5976236.

Experiments:
[1] = biological target: recombinant human galectin-3 (human) (UniProt P17931); assay: atomic force microscopy force spectroscopy; Gal-3 attached to a slide, mDectin-2 or SIGN-R1 (untreated or PNGase F-treated) on the AFM tips; PBS
[2] = biological target: Muc2 from colon of wild-type C57BL/6 mice (mouse (endogenous in C57BL/6 colon)) (UniProt Q80Z19); assay: atomic force microscopy force spectroscopy; C-type lectins attached to the AFM tip via the PEG linker, mucin covalently attached to the glass slide; PBS; 1024 force curves
Chain of Muc2 from colon of wild-type C57BL/6 mice (mouse (endogenous in C57BL/6 colon)) (Q80Z19 21-4576): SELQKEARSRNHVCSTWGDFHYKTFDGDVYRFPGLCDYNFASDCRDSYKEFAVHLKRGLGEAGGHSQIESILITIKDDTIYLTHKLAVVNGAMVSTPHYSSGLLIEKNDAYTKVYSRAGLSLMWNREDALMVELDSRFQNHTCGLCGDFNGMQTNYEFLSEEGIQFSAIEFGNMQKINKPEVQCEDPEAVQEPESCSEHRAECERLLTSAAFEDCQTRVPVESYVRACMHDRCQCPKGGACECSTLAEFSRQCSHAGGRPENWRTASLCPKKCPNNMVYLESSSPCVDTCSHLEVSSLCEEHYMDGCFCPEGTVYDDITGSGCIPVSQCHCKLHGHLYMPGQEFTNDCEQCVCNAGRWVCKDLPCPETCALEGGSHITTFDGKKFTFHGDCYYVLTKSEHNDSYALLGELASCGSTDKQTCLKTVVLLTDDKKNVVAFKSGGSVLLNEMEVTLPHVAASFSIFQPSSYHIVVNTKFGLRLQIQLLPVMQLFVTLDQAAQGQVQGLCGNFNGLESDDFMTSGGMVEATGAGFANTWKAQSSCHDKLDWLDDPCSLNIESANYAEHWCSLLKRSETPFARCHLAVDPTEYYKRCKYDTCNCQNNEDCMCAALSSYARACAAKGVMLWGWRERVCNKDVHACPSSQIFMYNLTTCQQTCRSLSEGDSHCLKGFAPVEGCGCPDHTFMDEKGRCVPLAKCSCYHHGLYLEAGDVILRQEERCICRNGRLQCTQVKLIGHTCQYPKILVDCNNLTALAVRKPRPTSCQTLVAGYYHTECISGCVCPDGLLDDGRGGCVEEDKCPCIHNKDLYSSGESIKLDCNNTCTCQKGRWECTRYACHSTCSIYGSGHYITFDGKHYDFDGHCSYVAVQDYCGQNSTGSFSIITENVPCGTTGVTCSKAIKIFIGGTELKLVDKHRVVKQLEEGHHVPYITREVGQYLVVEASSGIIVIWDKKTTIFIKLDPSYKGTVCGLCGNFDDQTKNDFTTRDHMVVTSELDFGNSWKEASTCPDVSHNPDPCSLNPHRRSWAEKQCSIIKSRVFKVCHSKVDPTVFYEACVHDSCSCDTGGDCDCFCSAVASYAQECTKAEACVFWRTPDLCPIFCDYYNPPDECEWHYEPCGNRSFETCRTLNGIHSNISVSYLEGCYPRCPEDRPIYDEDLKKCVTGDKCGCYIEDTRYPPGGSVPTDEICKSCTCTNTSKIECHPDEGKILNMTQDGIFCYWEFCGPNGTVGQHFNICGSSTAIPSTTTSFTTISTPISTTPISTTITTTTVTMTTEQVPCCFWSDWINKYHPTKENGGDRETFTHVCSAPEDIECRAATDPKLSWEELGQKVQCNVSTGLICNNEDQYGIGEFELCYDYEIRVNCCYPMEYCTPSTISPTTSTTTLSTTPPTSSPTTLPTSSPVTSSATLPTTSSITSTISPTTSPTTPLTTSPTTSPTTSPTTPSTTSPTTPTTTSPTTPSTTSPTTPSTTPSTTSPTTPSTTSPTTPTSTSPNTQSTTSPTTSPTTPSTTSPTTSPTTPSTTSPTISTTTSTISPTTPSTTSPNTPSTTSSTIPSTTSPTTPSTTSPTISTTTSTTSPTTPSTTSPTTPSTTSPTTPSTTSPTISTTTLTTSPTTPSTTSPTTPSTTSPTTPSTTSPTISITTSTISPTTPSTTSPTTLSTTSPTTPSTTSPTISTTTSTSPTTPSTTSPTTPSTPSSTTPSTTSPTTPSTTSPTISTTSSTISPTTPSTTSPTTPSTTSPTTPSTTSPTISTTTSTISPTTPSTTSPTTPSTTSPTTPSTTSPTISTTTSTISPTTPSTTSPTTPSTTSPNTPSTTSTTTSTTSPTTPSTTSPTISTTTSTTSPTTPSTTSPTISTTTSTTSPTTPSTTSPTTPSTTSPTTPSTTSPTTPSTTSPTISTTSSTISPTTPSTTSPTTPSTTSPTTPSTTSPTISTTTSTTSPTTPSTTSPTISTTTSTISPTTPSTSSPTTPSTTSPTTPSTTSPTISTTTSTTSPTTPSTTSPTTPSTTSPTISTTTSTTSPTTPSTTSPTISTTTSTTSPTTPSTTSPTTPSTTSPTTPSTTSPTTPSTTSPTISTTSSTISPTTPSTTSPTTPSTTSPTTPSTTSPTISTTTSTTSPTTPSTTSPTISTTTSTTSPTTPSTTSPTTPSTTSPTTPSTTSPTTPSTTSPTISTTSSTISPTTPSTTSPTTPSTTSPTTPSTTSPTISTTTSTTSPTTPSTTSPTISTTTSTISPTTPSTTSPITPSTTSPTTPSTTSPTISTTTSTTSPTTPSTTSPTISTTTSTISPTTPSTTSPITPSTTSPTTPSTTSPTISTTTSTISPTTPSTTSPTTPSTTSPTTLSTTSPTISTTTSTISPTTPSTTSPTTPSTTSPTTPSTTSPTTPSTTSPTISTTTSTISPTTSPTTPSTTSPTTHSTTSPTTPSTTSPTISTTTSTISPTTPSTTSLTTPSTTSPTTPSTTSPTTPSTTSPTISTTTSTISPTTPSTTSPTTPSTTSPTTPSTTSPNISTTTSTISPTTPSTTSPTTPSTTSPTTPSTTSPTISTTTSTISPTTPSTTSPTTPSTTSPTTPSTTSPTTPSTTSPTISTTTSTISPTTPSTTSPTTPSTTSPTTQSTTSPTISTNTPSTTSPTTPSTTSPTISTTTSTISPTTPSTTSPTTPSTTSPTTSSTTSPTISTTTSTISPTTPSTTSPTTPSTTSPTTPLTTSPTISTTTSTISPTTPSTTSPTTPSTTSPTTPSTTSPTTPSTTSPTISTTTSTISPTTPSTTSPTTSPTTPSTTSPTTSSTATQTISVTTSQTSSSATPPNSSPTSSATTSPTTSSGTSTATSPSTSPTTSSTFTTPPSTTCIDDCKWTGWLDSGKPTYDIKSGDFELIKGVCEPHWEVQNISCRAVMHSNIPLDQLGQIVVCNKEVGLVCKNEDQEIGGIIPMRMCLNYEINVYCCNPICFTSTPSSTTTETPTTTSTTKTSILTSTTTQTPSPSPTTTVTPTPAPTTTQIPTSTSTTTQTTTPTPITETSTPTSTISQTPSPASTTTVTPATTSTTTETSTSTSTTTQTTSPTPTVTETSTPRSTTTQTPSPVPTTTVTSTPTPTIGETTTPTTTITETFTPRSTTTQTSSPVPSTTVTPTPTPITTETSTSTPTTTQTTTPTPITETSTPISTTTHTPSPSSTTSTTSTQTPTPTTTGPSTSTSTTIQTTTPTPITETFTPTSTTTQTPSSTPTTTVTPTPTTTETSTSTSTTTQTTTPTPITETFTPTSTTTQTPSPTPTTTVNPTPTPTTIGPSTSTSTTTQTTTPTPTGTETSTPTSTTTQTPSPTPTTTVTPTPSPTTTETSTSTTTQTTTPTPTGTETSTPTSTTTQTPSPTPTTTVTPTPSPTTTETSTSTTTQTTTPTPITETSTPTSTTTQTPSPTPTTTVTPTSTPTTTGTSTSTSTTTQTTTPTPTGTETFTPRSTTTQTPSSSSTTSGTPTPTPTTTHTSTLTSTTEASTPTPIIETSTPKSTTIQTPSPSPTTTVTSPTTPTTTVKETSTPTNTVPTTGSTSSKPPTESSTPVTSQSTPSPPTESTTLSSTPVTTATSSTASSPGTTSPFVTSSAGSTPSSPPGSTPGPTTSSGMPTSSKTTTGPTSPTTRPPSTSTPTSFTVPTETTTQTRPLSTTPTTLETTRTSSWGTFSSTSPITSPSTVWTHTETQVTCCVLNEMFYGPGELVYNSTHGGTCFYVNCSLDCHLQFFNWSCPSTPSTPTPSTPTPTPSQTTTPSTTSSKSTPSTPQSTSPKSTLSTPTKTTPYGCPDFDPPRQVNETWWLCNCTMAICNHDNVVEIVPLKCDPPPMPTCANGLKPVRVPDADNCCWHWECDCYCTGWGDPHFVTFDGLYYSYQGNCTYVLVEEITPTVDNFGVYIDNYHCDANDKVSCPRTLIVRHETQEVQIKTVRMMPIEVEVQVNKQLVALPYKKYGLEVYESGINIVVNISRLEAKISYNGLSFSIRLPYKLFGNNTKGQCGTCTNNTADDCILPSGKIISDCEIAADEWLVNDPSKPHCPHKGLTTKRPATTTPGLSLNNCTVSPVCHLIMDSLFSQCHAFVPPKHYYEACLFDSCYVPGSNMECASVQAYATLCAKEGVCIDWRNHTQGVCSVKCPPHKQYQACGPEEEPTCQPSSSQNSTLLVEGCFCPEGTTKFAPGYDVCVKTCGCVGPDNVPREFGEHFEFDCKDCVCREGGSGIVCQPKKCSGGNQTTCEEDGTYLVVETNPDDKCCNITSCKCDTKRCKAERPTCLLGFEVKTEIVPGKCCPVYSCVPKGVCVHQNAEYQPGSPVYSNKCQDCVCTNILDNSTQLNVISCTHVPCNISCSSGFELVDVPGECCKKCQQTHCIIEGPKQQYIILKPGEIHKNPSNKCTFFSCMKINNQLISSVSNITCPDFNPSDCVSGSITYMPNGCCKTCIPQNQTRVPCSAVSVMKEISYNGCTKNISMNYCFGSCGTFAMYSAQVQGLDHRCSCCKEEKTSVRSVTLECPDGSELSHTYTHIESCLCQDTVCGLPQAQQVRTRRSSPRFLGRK

Chain of recombinant human galectin-3 (human) (P17931 whole entry): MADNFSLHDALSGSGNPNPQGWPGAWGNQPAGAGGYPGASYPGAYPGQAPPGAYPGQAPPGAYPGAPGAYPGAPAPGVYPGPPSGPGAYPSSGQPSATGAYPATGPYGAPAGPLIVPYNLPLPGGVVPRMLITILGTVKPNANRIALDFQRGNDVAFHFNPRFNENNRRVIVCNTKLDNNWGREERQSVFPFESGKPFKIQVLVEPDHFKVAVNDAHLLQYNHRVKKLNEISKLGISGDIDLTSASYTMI

modal value of adhesion [1]: 17.1 pN
adhesion force of some binding events [2]: 3210 pN
modal value of adhesions [2]: 292 pN
Substance: recombinant murine SIGN-R1 (from UniProt Q8CJ91 1-325) (receptor)
